Measured values taken from the supplement of paper PMC6757056.
± gives the standard deviation of the averaged measurements.

B1: library; a variant is named by its letters at N, in order (parent)
chain: GCUGUCACCGGUGCUUGGUACGUUAUAUUCAGCCGGUCUGAUGAGUCUNNNNNNAGACGAAACAGC

Columns and labels:
(6R,S)-folinic acid [1] = variants of: B1; test: FACS-Seq fitted mean relative fluorescence mCherry/BFP without ligand (log10 relative fluorescence); HEK293T overexpressing SLC46A1; higher = higher reporter protein expression; details: without (6R,S)-folinic acid; ligand present: no
In short: (§1)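 Genomic DNA from 6 mCherry/BFP sort bins was PCR-amplified, barcoded and sequenced on MiSeq. The sorted cells were enriched HEK293T libraries, lentivirally transduced with a ribozyme-switch mCherry reporter and an EF1α-BFP marker, incubated with or without ligand for 48 h. Fluorescence derives from a normal fit to the bin counts. The fit was on log10(mCherry/BFP), and means were scaled to five spiked-in control ribozymes.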

(6R,S)-folinic acid [2] = variants of: B1; test: normalized RNA/DNA level without ligand (relative to sTRSVctl = 100) (log10 (% of sTRSVctl)); HEK293T overexpressing SLC46A1; higher = less ribozyme self-cleavage, higher mRNA level; details: without (6R,S)-folinic acid; ligand present: no
Description: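 Hammerhead (sTRSV) ribozyme switch libraries with a ligand aptamer grafted on stem I and a randomized N4-6 loop II, cloned into the 3' UTR of mCherry and transiently transfected into HEK293T cells; RNA-Seq 72 h post transfection with ligand added 1 h before transfection; RNA read count / plasmid DNA read count normalized to the non-cleaving sTRSVctl (x100), log10; sequences with >100 DNA reads. FACS-Seq: lentiviral library sorted into 6 bins after 48 h ligand, log-normal fit mean of mCherry/BFP scaled to controls. Printed sequences are partial switch sequences.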

(6R,S)-folinic acid [3] = variants of: B1; test: FACS-Seq fitted mean relative fluorescence mCherry/BFP with ligand (log10 relative fluorescence); HEK293T overexpressing SLC46A1; ligand concentration (+) FACS-Seq: 6 mM; higher = higher reporter protein expression; details: with (6R,S)-folinic acid; ligand present: yes
In short: as §1

(6R,S)-folinic acid [4] = variants of: B1; test: normalized RNA/DNA level with ligand (relative to sTRSVctl = 100) (log10 (% of sTRSVctl)); HEK293T overexpressing SLC46A1; ligand concentration (+) RNA-Seq: 6 mM; higher = less ribozyme self-cleavage, higher mRNA level; details: with (6R,S)-folinic acid; ligand present: yes
In short: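 Ribozyme switch library plasmids linked to reporters were introduced into HEK293T cells at 4 µg per 6-well well, with ligand, if any, added 1 h before. Total RNA was extracted with EDTA 72 h later, reverse-transcribed, amplified, barcoded and sequenced. RNA level was computed from RNA over DNA reads relative to a spiked-in non-cleaving sequence or the top sequences, then scaled and log-transformed. The top set was 25 sequences, values were ×100 and log10, and the cutoff was ≥100 DNA reads.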

| Variant | FACS-Seq fitted mean (log10) ((6R,S)-folinic acid [1]) | normalized RNA/DNA level without ligand (log10) ((6R,S)-folinic acid [2]) | FACS-Seq fitted mean (log10) ((6R,S)-folinic acid [3]) | normalized RNA/DNA level with ligand (log10) ((6R,S)-folinic acid [4]) |
| --- | --- | --- | --- | --- |
| GCUGUCACCGGUGCUUGGUACGUUAUAUUCAGCCGGUCUGAUGAGUCUCUGUAUAGACGAAACAGC [CUGUAU] | 0.306 ± 0.094 | 1.981 ± 0.0073 | 0.479 ± 0.11 | 2 ± 0.021 |
| GCUGUCACCGGUGCUUGGUACGUUAUAUUCAGCCGGUCUGAUGAGUCUAAUAGUAGACGAAACAGC [AAUAGU] | 0.361 ± 0.12 | 1.928 ± 0.0047 | 0.623 ± 0.097 | 1.978 ± 0.018 |
| GCUGUCACCGGUGCUUGGUACGUUAUAUUCAGCCGGUCUGAUGAGUCUAAUCCAAGACGAAACAGC [AAUCCA] | 0.639 ± 0.012 | 1.995 ± 0.015 | 0.486 ± 0.014 | 1.99 ± 0.029 |
| GCUGUCACCGGUGCUUGGUACGUUAUAUUCAGCCGGUCUGAUGAGUCUUAUAAGAGACGAAACAGC [UAUAAG] | 0.158 ± 0.15 | 1.688 ± 0.0045 | 0.476 ± 0.26 | 1.93 ± 0.027 |
| GCUGUCACCGGUGCUUGGUACGUUAUAUUCAGCCGGUCUGAUGAGUCUAGGUGUAGACGAAACAGC [AGGUGU] | 0.0941 ± 0.074 | 1.954 ± 0.015 | 0.266 ± 0.017 | 2.0099 ± 0.00041 |
| GCUGUCACCGGUGCUUGGUACGUUAUAUUCAGCCGGUCUGAUGAGUCUAACAGAAGACGAAACAGC [AACAGA] | 0.344 ± 0.11 | 1.964 ± 0.01 | 0.425 ± 0.04 | 2 ± 0.028 |
| GCUGUCACCGGUGCUUGGUACGUUAUAUUCAGCCGGUCUGAUGAGUCUUUCAAGAGACGAAACAGC [UUCAAG] | 0.372 ± 0.12 | 1.85 ± 0.014 | 0.562 ± 0.035 | 2.01 ± 0.034 |
| GCUGUCACCGGUGCUUGGUACGUUAUAUUCAGCCGGUCUGAUGAGUCUCGUGAAAGACGAAACAGC [CGUGAA] | 0.328 ± 0.19 | 1.9509 ± 0.0012 | 0.192 ± 0.33 | 2.01 ± 0.028 |
| GCUGUCACCGGUGCUUGGUACGUUAUAUUCAGCCGGUCUGAUGAGUCUGGAGUAAGACGAAACAGC [GGAGUA] | 0.117 ± 0.042 | 1.9805 ± 0.0005 | 0.0493 ± 0.22 | 2.03 ± 0.029 |
| GCUGUCACCGGUGCUUGGUACGUUAUAUUCAGCCGGUCUGAUGAGUCUUAAAACAGACGAAACAGC [UAAAAC] | 0.386 ± 0.024 | 1.973 ± 0.0055 | 0.499 ± 0.15 | 1.98 ± 0.028 |
| GCUGUCACCGGUGCUUGGUACGUUAUAUUCAGCCGGUCUGAUGAGUCUUAGGACAGACGAAACAGC [UAGGAC] | 0.556 ± 0.12 | 1.982 ± 0.019 | 0.551 ± 0.11 | 2 ± 0.025 |
| GCUGUCACCGGUGCUUGGUACGUUAUAUUCAGCCGGUCUGAUGAGUCUGAAGAUAGACGAAACAGC [GAAGAU] | 0.124 ± 0.065 | 1.968 ± 0.0035 | 0.379 ± 0.13 | 2.03 ± 0.032 |
| GCUGUCACCGGUGCUUGGUACGUUAUAUUCAGCCGGUCUGAUGAGUCUUGUAAGAGACGAAACAGC [UGUAAG] | 0.295 ± 0.0061 | 1.666 ± 0.0027 | 0.624 ± 0.062 | 1.94 ± 0.033 |
| GCUGUCACCGGUGCUUGGUACGUUAUAUUCAGCCGGUCUGAUGAGUCUACUUAUAGACGAAACAGC [ACUUAU] | 0.328 ± 0.084 | 1.991 ± 0.0041 | 0.329 ± 0.12 | 2.02 ± 0.031 |
| GCUGUCACCGGUGCUUGGUACGUUAUAUUCAGCCGGUCUGAUGAGUCUUAGGUGAGACGAAACAGC [UAGGUG] | 0.228 ± 0.037 | 1.68 ± 0.017 | 0.559 ± 0.21 | 1.96 ± 0.033 |
| GCUGUCACCGGUGCUUGGUACGUUAUAUUCAGCCGGUCUGAUGAGUCUGACGCCAGACGAAACAGC [GACGCC] | 0.287 ± 0.023 | 2.043 ± 0.0061 | 0.0736 ± 0.3 | 2.03 ± 0.028 |
| GCUGUCACCGGUGCUUGGUACGUUAUAUUCAGCCGGUCUGAUGAGUCUGGAAUGAGACGAAACAGC [GGAAUG] | 0.589 ± 0.011 | 1.973 ± 0.0085 | 0.668 ± 0.1 | 2.03 ± 0.029 |
| GCUGUCACCGGUGCUUGGUACGUUAUAUUCAGCCGGUCUGAUGAGUCUUAAGCUAGACGAAACAGC [UAAGCU] | 0.334 ± 0.089 | 1.992 ± 0.014 | 0.436 ± 0.13 | 2.021 ± 0.0075 |
| GCUGUCACCGGUGCUUGGUACGUUAUAUUCAGCCGGUCUGAUGAGUCUUAGUAUAGACGAAACAGC [UAGUAU] | 0.347 ± 0.059 | 1.931 ± 0.0038 | 0.553 ± 0.11 | 2.006 ± 0.018 |
| GCUGUCACCGGUGCUUGGUACGUUAUAUUCAGCCGGUCUGAUGAGUCUUGUAUGAGACGAAACAGC [UGUAUG] | -0.0525 ± 0.085 | 1.707 ± 0.007 | 0.265 ± 0.086 | 1.96 ± 0.039 |
| GCUGUCACCGGUGCUUGGUACGUUAUAUUCAGCCGGUCUGAUGAGUCUCUAAAAAGACGAAACAGC [CUAAAA] | 0.151 ± 0.029 | 1.98 ± 0.021 | 0.19 ± 0.12 | 1.98 ± 0.048 |
